One assay has as its system 8988T cells. Kind of assay: NCOA4 protein levels while blocking autophagic flux (immunoblot). The class given is cell-based, human. The conditions noted are these: CQ or BAF 8 hours, FIG. 2(c).
The target in assay [1] is T1, apo-ferritin purified from equine spleen (Equus caballus, UniProt Q8MIP0).
T1 construct: apo-ferritin purified from equine spleen; purchased Sigma F4503; host or cells: equine spleen
Kind of assay: GST pull-down assay of ferritin using GST-NCOA4 fragments. The class given is binding. The settings on record: anti-FTH1 immunoblot, FIGS. 7, 8, 11. The text has this: GST-tagged NCOA4 constructs were also made to probe the interactions of C-terminal portions of NCOA4 with ferritin. NCOA4-truncation constructs were produced using Gateway cloning (Invitrogen, Life Technologies, catalog #11789-013 and 11791-019) into a pDEST60 N-terminal GST fusion plasmid (GST-NCOA4) from EMD Millipore (Gateway Nova pET-60-DEST, product #71851-3) and transformed in E. coli BL21 (DE3) cells (New England Biosciences, C2527I).
NCOA4 truncation constructs were designed based on NCBI reference sequence: NP_001138735.1 (SEQ ID NO: 4). In particular, fragments of SEQ ID NO: 4 consisting of amino acids (aa) 1-245, aa 235-614, aa 235-560, aa 235-401, aa 383-560, aa 545-614, aa 383-522, aa 510-560, aa 383-436, aa 436-485, aa 475-522, aa 475-500, aa 480-500, aa 480-504, aa 485-509, aa 490-514, aa 495-522 were designed. Protein expression in the DE3 cells was induced with 1 mM isopropyl-beta-D-thiogalactopyranoside (IPTG) (Sigma, I6758-10 G) for 3 hours at 37° C. Cells were collected by centrifugation, re-suspended in 25 mM Tris-HCl (pH 7.4), 10% (w/v) sucrose and lysed with a single freeze-thaw cycle followed by sonication. After centrifugation, a GST pull-down assay was performed.
In the GST pull-down assay, lysates were incubated with 10 μl of a 50% (v/v) slurry of glutathione Sepharose 4B beads (GE Healthcare Lifesciences, 17-0756-01) for 30 minutes at 4° C. Beads were washed thoroughly with 150 mM NaCl, 20 mM Tris (pH 7.4), 2 mM dithiothreitol (DTT), 0.5% (w/v) Nonidet P-40, leaving 50-100 μg of GST-fusion protein bound to the beads. Beads were then mixed with 0.5-2 μg of apo-ferritin purified from equine spleen (Sigma F4503) or recombinant human FTH1 or FTL produced in Rosetta E. coli (EMD Millipore, 70953-3). The assay mix was incubated for 2 hours at 4° C., and beads were washed four times with 1 ml wash buffer. Proteins were eluted with SDS sample buffer and analyzed by 4-20% gradient SDS-PAGE and immunoblotting with anti-FTH1 antibody (as above) or anti-FLAG antibody (Sigma, F1804-200 UG). Pounceau stain was used to visualize GST-NCOA4 bands. (Pounceau, Sigma, P7170-1 L, protocol as per product manual).
Background: A western blot detects proteins with antibodies after separation by electrophoresis.

The target in assay [2] is T2, HERC2-FLAG fragment (F3, HERC2 amino acids 1700-2700) (Homo sapiens, UniProt O95714).
T2 construct: HERC2-FLAG fragment (F3, HERC2 amino acids 1700-2700) was produced as described in Bekker-Jensen et al; expressed in transfected cells; host or cells: 293T cells (transient transfection, lysate used)
T2 sequence (O95714 1700-2700): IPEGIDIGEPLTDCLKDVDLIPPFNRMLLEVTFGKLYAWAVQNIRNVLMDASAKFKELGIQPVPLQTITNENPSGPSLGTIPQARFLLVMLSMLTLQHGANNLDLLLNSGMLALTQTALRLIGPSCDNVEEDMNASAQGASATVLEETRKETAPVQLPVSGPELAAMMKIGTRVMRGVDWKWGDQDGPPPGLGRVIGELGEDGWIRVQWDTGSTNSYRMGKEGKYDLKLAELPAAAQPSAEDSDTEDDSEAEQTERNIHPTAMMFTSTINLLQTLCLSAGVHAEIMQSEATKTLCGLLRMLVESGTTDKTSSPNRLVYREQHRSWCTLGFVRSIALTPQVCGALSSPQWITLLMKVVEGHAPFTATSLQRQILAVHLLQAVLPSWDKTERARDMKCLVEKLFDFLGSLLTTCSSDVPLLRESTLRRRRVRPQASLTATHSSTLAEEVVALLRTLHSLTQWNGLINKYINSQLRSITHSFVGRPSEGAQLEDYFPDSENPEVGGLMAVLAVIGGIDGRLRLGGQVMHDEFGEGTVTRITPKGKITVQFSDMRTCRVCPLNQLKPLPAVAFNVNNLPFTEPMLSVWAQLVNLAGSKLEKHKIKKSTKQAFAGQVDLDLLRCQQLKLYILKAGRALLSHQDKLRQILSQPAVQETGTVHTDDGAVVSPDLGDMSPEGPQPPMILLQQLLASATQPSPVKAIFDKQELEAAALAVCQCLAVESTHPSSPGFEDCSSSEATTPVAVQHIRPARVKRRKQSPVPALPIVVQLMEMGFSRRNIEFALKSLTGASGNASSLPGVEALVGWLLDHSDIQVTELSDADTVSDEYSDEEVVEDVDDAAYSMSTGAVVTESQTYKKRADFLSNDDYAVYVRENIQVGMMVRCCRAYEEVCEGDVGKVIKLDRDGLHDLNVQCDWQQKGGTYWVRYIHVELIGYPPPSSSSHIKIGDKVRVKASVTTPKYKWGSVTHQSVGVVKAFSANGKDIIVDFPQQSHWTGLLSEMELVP
In words: GST pull-down assay of HERC2-FLAG Fragment 3 using GST-NCOA4 fragments. Format: binding. The conditions noted are these: 293T lysate expressing HERC2-FLAG F3, anti-FLAG immunoblot; FIG. 12. Here is the method: To map the interaction of NCOA-4 with HERC2, the GST-NCOA4 truncation constructs described above were also tested in a GST pull-down assay with HERC2-FLAG expressing 293T cell line. HERC2-FLAG fragment (F3, HERC2 amino acids 1700-2700) was produced as described in Bekker-Jensen et al., Nature Cell Biology (2010) 12; 80-86. The HERC2-FLAG F3 was transiently transfected into 293T cells using standard transfection procedures using PEI (Polysciences, #23966-2).
Lysates were obtained, as above, and incubated with 10 μl of a 50% (v/v) slurry of glutathione Sepharose 4B beads for 30 minutes at 4° C. Beads were washed thoroughly with 150 mM NaCl, 20 mM Tris (pH 7.4), 2 mM DTT, 0.5% (w/v) Nonidet P-40, leaving 50-100 μg of GST-fusion protein bound to the beads. Beads were then mixed with 300 μg of lysate from a HERC2-FLAG expressing 293T cell line, as above. The assay mix was incubated for 2 hours at 4° C., and beads were washed four times with 1 ml wash buffer. Proteins were eluted with SDS sample buffer and analyzed by 4-20% gradient SDS-PAGE and immunoblotting with anti-HERC2 antibody or anti-FLAG antibody, as above. Coomassie stain was used to visualize GST-NCOA4 bands as above.

Assay [3] has as its target T3, ferritin purified from horse spleen (mixture of FTH1 and FTL subunits) (Equus caballus, UniProt Q8MIP0).
T3 construct: ferritin purified from horse spleen; purchased Sigma A3641-100 mg; host or cells: horse spleen
Kind of assay: anti-MYC immunoprecipitation of in vitro translated MYC-NCOA4 constructs incubated with ferritin. The class given is binding. The settings on record: anti-MYC IP, anti-FTH1 immunoblot, FIG. 5. How it is done:
To probe the interaction between ferritin and NCOA4, initial binding assays using MYC-tagged NCOA4 full-length and truncation constructs produced using an in vitro translation (“IVT”) system were conducted. MYC-NCOA4 fragments were cloned using PCR into a modified T7 cell-free expression vector (pT7CFE1-NMyc, #88863, Thermo Scientific). 1-Step Human Coupled IVT Kit—DNA from Thermo Scientific (product #88881) was used to produce MYC-tagged NCOA4 constructs as described in the product manual. Apoferritin (Sigma, A3641-100 mg) was added in a pull-down assay using anti-c-Myc Agarose Affinity Gel antibody produced in rabbit (Sigma, A7470-1 ML). Affinity purification reactions were washed thoroughly with 150 mM NaCl, 20 mM Tris (pH 7.4), and 2 mM dithiothreitol. Proteins were eluted with SDS sample buffer and analyzed by 4-20% gradient SDS-PAGE and immunoblotting with anti-FTH1 antibody (Cell Signaling 3998; Western blot 1:1,000) or anti-MYC antibody (Santa Cruz Sc-40; western blot 1:1,000).
The full-length, N-terminal (amino acids (aa) 1-245 of SEQ ID NO: 4) and C-terminal (aa 235-614 of SEQ ID NO:4) MYC-NCOA4 were incubated with ferritin purified from horse spleen (Apoferritin (Sigma, A3641-100 mg), consisting of a mixture of FTH1 and FTL subunits) and anti-MYC immunoprecipitation was performed followed by immunoblotting as described above.

We go through 9 molecules from patent US10350264B2, “Compositions and methods for modulating NCOA4-mediated autophagic targeting of ferritin” (Dana-Farber Cancer Institute, Inc., priority 2014, dated 2019).

Ends that are not written are not given here.

T3 sequence (Q8MIP0 whole entry): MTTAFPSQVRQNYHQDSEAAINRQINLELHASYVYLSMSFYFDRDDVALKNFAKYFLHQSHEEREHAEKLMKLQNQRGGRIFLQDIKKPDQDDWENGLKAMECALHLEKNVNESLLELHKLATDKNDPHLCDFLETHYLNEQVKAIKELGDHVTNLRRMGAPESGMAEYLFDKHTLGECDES
T3 sequence (P02791 2-175 partner limits assumed): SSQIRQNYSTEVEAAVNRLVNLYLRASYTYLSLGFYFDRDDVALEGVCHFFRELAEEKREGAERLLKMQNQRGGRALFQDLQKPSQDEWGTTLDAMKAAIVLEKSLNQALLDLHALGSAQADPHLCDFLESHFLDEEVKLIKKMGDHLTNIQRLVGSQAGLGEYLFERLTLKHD
T1 sequence (Q8MIP0 whole entry): as the sequence (Q8MIP0 whole entry) above
T1 sequence (P02791 2-175 partner limits assumed): as the sequence (P02791 2-175 partner limits assumed) above

On to `CO/C1=C\C(C)=C\[C@@H](C)[C@@H](O)[C@@H](C)C/C(C)=C/C=C/[C@H](OC)[C@@H]([C@@H](C)[C@@H](O)[C@H](C)[C@@]2(O)C[C@@H](O)[C@H](C)[C@@H](C(C)C)O2)OC1=O` [Bafilomycin A1 (BAF), Bafilomycin A1], for which the NCOA4 protein levels entry in the assay with 8988T cells was “markedly increased”.
“SFQVIKNSPLSEWLIRPPYKEGSPK (Homo sapien) [aa 485-509]”: in assay [1], the “binding of GST-NCOA4 fragment to ferritin” value (from here on “binding … to ferritin”) was “bound to ferritin”.
On to “SMVTEDWLVQNHQDPCKVEEVCRANEPCTSFAECVCDENCEKEALYKWLLKKEG (Homo sapien) [aa 383-436]”, for which, in assay [2], the “binding of GST-NCOA4 fragment to HERC2-FLAG” value is recorded as “bound to HERC2-FLAG”.
On to “aa 1-614: full-length human NCOA4 (NP_001138735.1), in vitro translated”, for which the “association of MYC-NCOA4 construct with ferritin” value (from here on “association”) in assay [3] is reported as “associated with ferritin”; in assay [3] (listed as Full-length NCOA4), “bind to ferritin”.
“aa 555-614: printed as C-terminal MYC-NCOA4; probably only the C-terminal part of NCOA4B ({MYC tag}-GEDKWLLRKKAQEVLLNSPLQEEHNFPPDHYGLPAVCDLFACMQLKVDKEKWLYRTPLQM; cysteine pairing not given here)”: the “association” value in assay [3] is “associated with ferritin”.

B1: aa 235-560: fragment of NCOA4 SEQ ID NO: 4 (protein)
chain: ENSQTSSRACNFFNNVGGNLKGLENWLLKSEKSSYQKCNSHSTTSSFSIEMEKVGDQELPDQDEMDLSDWLVTPQESHKLRKPENGSRETSEKFKLLFQSYNVNDWLVKTDSCTNCQGNQPKGVEIENLGNLKCLNDHLEAKKPLSTPSMVTEDWLVQNHQDPCKVEEVCRANEPCTSFAECVCDENCEKEALYKWLLKKEGKDKNGMPVEPKPEPEKHKDSLNMWLCPRKEVIEQTKAPKAMTPSRIADSFQVIKNSPLSEWLIRPPYKEGSPKEVPGTEDRAGKQKFKSPMNTSWCSFNTADWVLPGKKMGNLSQLSSGEDKWL
modifications: Homo sapien
On to B1, for which, in assay [1], the “binding … to ferritin” value was “bound to ferritin”.

B2: NCOAB: naturally occurring transcript variant of NCOA4 consisting of amino acids 1-238 and 555-614 (protein)
chain: MNTFQDQSGSSSNREPLLRCSDARRDLELAIGGVLRAEQQIKDNLREVKAQIHSCISRHLECLRSREVWLYEQVDLIYQLKEETLQQQAQQLYSLLGQFNCLTHQLECTQNKDLANQVSVCLERLGSLTLKPEDSTVLLFEADTITLRQTITTFGSLKTIQIPEHLMAHASSANIGPFLEKRGCISMPEQKSASGIVAVPFSEWLLGSKPASGYQAPYIPSTDPQDWLTQKQTLENSQGEDKWLLRKKAQEVLLNSPLQEEHNFPPDHYGLPAVCDLFACMQLKVDKEKWLYRTPLQM
modifications: left off: small tags and cut ends
B2: in assay [3], the “association” value is on record as “did not bind ferritin”.

B3: aa 383-560: fragment of NCOA4 SEQ ID NO: 4 (protein)
chain: SMVTEDWLVQNHQDPCKVEEVCRANEPCTSFAECVCDENCEKEALYKWLLKKEGKDKNGMPVEPKPEPEKHKDSLNMWLCPRKEVIEQTKAPKAMTPSRIADSFQVIKNSPLSEWLIRPPYKEGSPKEVPGTEDRAGKQKFKSPMNTSWCSFNTADWVLPGKKMGNLSQLSSGEDKWL
modifications: Homo sapien
With B3, the “binding of GST-NCOA4 fragment to HERC2-FLAG” value in assay [2] is on record as “binds to HERC2 fragment”. The “binding … to ferritin” value in assay [1] is “bound to ferritin”.

B4: N-terminal MYC-NCOA4: NCOA4 N-terminal fragment, amino acids 1-245 of SEQ ID NO: 4 (protein)
chain: MNTFQDQSGSSSNREPLLRCSDARRDLELAIGGVLRAEQQIKDNLREVKAQIHSCISRHLECLRSREVWLYEQVDLIYQLKEETLQQQAQQLYSLLGQFNCLTHQLECTQNKDLANQVSVCLERLGSLTLKPEDSTVLLFEADTITLRQTITTFGSLKTIQIPEHLMAHASSANIGPFLEKRGCISMPEQKSASGIVAVPFSEWLLGSKPASGYQAPYIPSTDPQDWLTQKQTLENSQTSSRACN
modifications: N-terminal MYC tag; Homo sapien
In the case of B4, the “association” value in assay [3] is on record as “did not associate with ferritin”.
